Results on 19 molecules are retold here after paper PMC9427789.

The target in experiment [1] is Burosumab (wild type). The experiment can be described thus: indirect ELISA. As to conditions: read off a plot; for response: chain shown with the change, level of the fitted curve at the highest mAb concentration, log [µg/mL] = 0.5, parent: est. 0.57; for ratio to parent: chain shown with the change;. (In general: In an ELISA, binding on a coated surface is turned into a signal by an enzyme label.)

Experiment [2] concerns the target alanine substitution at H52, R76, F108 residues of FGF23 (three single mutants, as a group) (human). Nature of the experiment: ELISA; indirect ELISA: FGF23 or its mutants coated at 2 µg/mL on Maxisorp plates (4 °C overnight), Burosumab or its variants three-fold serially diluted in PBS from 9 µg/mL, room temperature 2 h, anti-human IgG H&L-HRP, A450; fold change from Kd values against the wild type.

Positions count from the first letter of the chain named. In names and notes the source's numbering stands.

B1: mouse FGF23 (wild type), Q9EPC2 Q117H; A159S (protein)
chain: YPDTSPLLGSNWGSLTHLYTATARTSYHLQIHRDGHVDGTPHQTIYSALMITSEDAGSVVITGAMTRRFLCMDLHGNIFGSLHFSPENCKFRHWTLENGYDVYLSQKHHYLVSLGRAKRIFQPGTNPPPFSQFLSRRNEVPLLHFYTVRPRRHTRSAEDPPERDPLNVLKPRPRATPVPVSCSRELPSAEEGGPAASDPLGVLRRGRGDARGGAGGADRCRPFPRFV
On to B1, for which the response in experiment [1] came to 0.8 A450.

B2: mouse FGF23 (wild type), Q9EPC2 T49N; T76R; Q117H; A159S (protein)
chain: B1 chain with T25N, T52R
With B2, the response in experiment [1] was found to be 0.9 A450.

B3: mouse FGF23 (wild type), Q9EPC2 T49N; Q117H; A159S (protein)
chain: B1 chain with T25N
Consider B3, for which, in experiment [1], the response amounted to 0.98 A450.

B4: mouse FGF23 (wild type), Q9EPC2 T76R (protein)
chain: YPDTSPLLGSNWGSLTHLYTATARTSYHLQIHRDGHVDGTPHQTIYSALMIRSEDAGSVVITGAMTRRFLCMDLHGNIFGSLHFSPENCKFRQWTLENGYDVYLSQKHHYLVSLGRAKRIFQPGTNPPPFSQFLARRNEVPLLHFYTVRPRRHTR
Consider B4, for which the response in experiment [1] amounted to 0.78 A450.

B5: mouse FGF23 (wild type), Q9EPC2 Q117H (protein)
chain: B4 chain with R52T, Q93H
Take B5: in experiment [1], the response stood at 0.78 A450.

B6: mouse FGF23 (wild type), Q9EPC2 T49N (protein)
chain: B4 chain with T25N, R52T
Consider B6, for which the response in experiment [1] was found to be 0.59 A450.

B7: mouse FGF23 (wild type), Q9EPC2 A159S (protein)
chain: B4 chain with R52T, A135S
With B7, in experiment [1], the response turned out to be 0.4 A450.

B8: Burosumab (wild type) (antibody, V domains shown)
VH: QVQLVQSGAEVKKPGASVKVSCKASGYTFTNHYMHWVRQAPGQGLEWMGIINPISGSTSNAQKFQGRVTMTRDTSTSTVYMELSSLRSEDTAVYYCARDIVDAFDFWGQGTMVTVSS
VL: AIQLTQSPSSLSASVGDRVTITCRASQGISSALVWYQQKPGKAPKLLIYDASSLESGVPSRFSGSGSGTDFTLTISSLQPEDFATYYCQQFNDYFTFGPGTKVDIK
In the case of B8, the fold decrease in binding against wild-type FGF23 in experiment [2] lay in the range of 7 to 10 fold.

B9: His-SUMO-FGF23 (N-terminal domain of human FGF23, wild type), Q9GZV9 R48A (protein)
chain: YPNASPLLGSSWGGLIHLYTATAANSYHLQIHKNGHVDGAPHQTIYSALMIRSEDAGFVVITGVMSRRYLCMDFRGNIFGSHYFDPENCRFQHQTLENGYDVYHSPQYHFLVSLGRAKRAFLPGMNPPPYSQFLSRRNEIPLIHFNTPIPRRHTRSAEDDSERDPLNVLKPRARMTPAPA
With B9, in experiment [1], the ratio to parent was found to be 1.

B10: His-SUMO-FGF23 (N-terminal domain of human FGF23, wild type), Q9GZV9 E121A (protein)
chain: B9 chain with A24R, E97A
As to B10, the ratio to parent in experiment [1] came out at 1.

B11: His-SUMO-FGF23 (N-terminal domain of human FGF23, wild type), Q9GZV9 R99A (protein)
chain: B9 chain with A24R, R75A
Take B11: the ratio to parent in experiment [1] amounted to 1.4.

B12: His-SUMO-FGF23 (N-terminal domain of human FGF23, wild type), Q9GZV9 H52A (protein)
chain: B9 chain with A24R, H28A
Regarding B12, the ratio to parent in experiment [1] was determined as 9.

B13: His-SUMO-FGF23 (N-terminal domain of human FGF23, wild type), Q9GZV9 F82A (protein)
chain: B9 chain with A24R, F58A
B13: in experiment [1], the ratio to parent was found to be 1.1.

B14: His-SUMO-FGF23 (N-terminal domain of human FGF23, wild type), Q9GZV9 Y43A (protein)
chain: B9 chain with Y19A, A24R
Regarding B14, the ratio to parent in experiment [1] stood at 1.7.

B15: His-SUMO-FGF23 (N-terminal domain of human FGF23, wild type), Q9GZV9 F108A (protein)
chain: B9 chain with A24R, F84A
Turning to B15, in experiment [1], the ratio to parent was found to be 6.2.

B16: His-SUMO-FGF23 (N-terminal domain of human FGF23, wild type), Q9GZV9 Y70A (protein)
chain: B9 chain with A24R, Y46A
As to B16, the ratio to parent in experiment [1] turned out to be 1.8.

B17: His-SUMO-FGF23 (N-terminal domain of human FGF23, wild type), Q9GZV9 H133A (protein)
chain: B9 chain with A24R, H109A
As for B17, in experiment [1], the ratio to parent is 2.2.

B18: His-SUMO-FGF23 (N-terminal domain of human FGF23, wild type), Q9GZV9 Y107A (protein)
chain: B9 chain with A24R, Y83A
As for B18, in experiment [1], the ratio to parent was 1.4.

B19: His-SUMO-FGF23 (N-terminal domain of human FGF23, wild type), Q9GZV9 R76A (protein)
chain: B9 chain with A24R, R52A
B19: the ratio to parent in experiment [1] stood at 8.2.
